Laboratory results reported in the nanobody polyreactivity screen of Harvey et al. (2022).

Assay: yeast display, Sf9 membrane polyspecificity reagent, FACS + sequencing; frameworks hold sequencing errors
Method in brief: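 Genes from sorted yeast were amplified by colony PCR, read by MiSeq 2 × 250 sequencing and filtered on CDR length. These cells carried a synthetic nanobody library in Saccharomyces cerevisiae BJ5465 and were sorted by FACS into low and high (top ~1%) gates on anti-HA and streptavidin fluorescence. Polyreactivity is labelled according to the gate of origin.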

In the case of “QVQLVESGGGLVQAGGSLRLSCAASGSIFHTYAMGWYRQAPGKERELVAAITVSGGDTYYADSVKGRFTISRDNAKNTGYLQMNSLKPEDTAVYYCAKRIFDTFDSWGQGTQVTVSS”, the “polyreactivity (PSR sort gate)” value is reported as “low polyreactivity”.
For “QVQLVESGGGLVQAGGSLRLSCAASGSIFHTYTMGWYRQAPGKERELVAAITRSGGTTYYADSVKGRFTISRDNAKNTVYLQMNSLKPEDTAVYYCAATHPGAVSFRYYYWGQGTQVTVSS”, the “polyreactivity (PSR sort gate)” value was “high polyreactivity”.
With “QVQLVESGGGLVQAGGSLRLSCAASGSIFHYYAMGWYRQAPGKERELVADITSGGSTNYADSVKGRFTISRDNAKNTVYVQMNSLKQEDTAVYYCNASFQSWLVRVPGDYWGQGTQVTVSS” the “polyreactivity (PSR sort gate)” value was “low polyreactivity”.
With “QVQLVESGGGLVQAGGSLRLSCAASGSIFHYYAMGWYRQATGKERELVAAISTSGGSTYYADSVKGRFTISRDNAKNTVYLQMNSLKPEDTAVYYCNAVYYYFPVGDDEYWGQGTQVTVSS” the “polyreactivity (PSR sort gate)” value was “high polyreactivity”.
For “QVQLVESGGGLVQAGGSLRLSCAASGSIFIFNAMGWYRQAPGKEREFVARIRRDSSTNYADSVKGRFTISRDNAKNTVYLQMNSLKPEDTAVYYCAAKRFYRRVELNSWGQGTQVTVSS”, the “polyreactivity (PSR sort gate)” value was “low polyreactivity”.
With “QVQLVESGGGLVQAGGSLRLSCAASGSIFIGYAMGWYRQAHGKERELVAAITSGGSTYADSVKGRFTISRDNAKNPVYLQMNSLKPEDSAVYYCAARFFLVTLDYWGQGTQVTVSS” the “polyreactivity (PSR sort gate)” value was “low polyreactivity”.
For “QVQLVESGGGLVQAGGSLRLSCAASGSIFIGYAMGWYRQSPGKERELVAAINDSGDRTYYADSVKGRFTISRDNAKNTVYLQMNSLKPEDTAVYYCAADLVSLDPEYDYWGQGTQVTVSS”, the “polyreactivity (PSR sort gate)” value was “low polyreactivity”.
In the case of “QVQLVESGGGLVQAGGSLRLSCAASGSIFIQNGMGWYRQAPGKERELVASSASGGSTNYADSVKGRYTISRDNAKNTVYVQMNSLKPEDTAVYYCAARVWYSSDGSTYPYTRYDYWGQGTQVTVSS”, the “polyreactivity (PSR sort gate)” value is reported as “high polyreactivity”.
With “QVQLVESGGGLVQAGGSLRLSCAASGSIFIRYAMGWSRQAPGTEREWVAAITSTGSTSYADSVNGRFTISRDNAKNTVYLQMNRLTPEDTAVYYCAKEASLVQGVIGGYPYDSWGQGTQVTVSS” the “polyreactivity (PSR sort gate)” value was “low polyreactivity”.
With “QVQLVESGGGLVQAGGSLRLSCAASGSIFISSDRRLDRQAPGKERALVAAMRSRVGSTYYADSVKGRFTISRENGKNSDYFQMNSLKPEDTAVYYCKKDNAVDRRPWFQVTYVYWVQGTQVTVSS” the “polyreactivity (PSR sort gate)” value was “low polyreactivity”.
For “QVQLVESGGGLVQAGGSLRLSCAASGSIFISYAMGWYRQAPGKERELVAAISSGGSTNYADSVKGRFTISRDNAKNTVYLQMNSLKPEATAVYYCAADGWLWSFTGDGWWFDYWGQGTQVTVSS”, the “polyreactivity (PSR sort gate)” value was “low polyreactivity”.
With “QVQLVESGGGLVQAGGSLRLSCAASGSIFISYDIGWYRHAPGKETELVAAIRSRVGSTYYADSVKGRFTISRDNAKNTVYLQMKSLKPEDTAVYYCNKDNAVDRLPWFQVTYEYWGQGTQVTVSS” the “polyreactivity (PSR sort gate)” value was “low polyreactivity”.
For “QVQLVESGGGLVQAGGSLRLSCAASGSIFISYNMGWYGQAPGKERELVAANNYNGGRTNYADSVKGRFTISRDKAKNTVYLQINSLKPEDTAVYYCNAAYSYSIYDYWGQGTQVTVSS”, the “polyreactivity (PSR sort gate)” value was “low polyreactivity”.
With “QVQLVESGGGLVQAGGSLRLSCAASGSIFISYVMGWYRQAPAKERELVASISWSGGSTYYADSVKGRFTISRDNAKNTVYLQMNSLKPEDTAVYYCAADRLVRIRSYRDLGYWGQGTQVTVSS” the “polyreactivity (PSR sort gate)” value was “high polyreactivity”.
In the case of “QVQLVESGGGLVQAGGSLRLSCAASGSIFITNAMGWYRQAPGKERELVAAISGRGGSTYSADSVKGRFTISRDNAKNTVYLQMNSLKPEDTAVYYCNAYSYRVSGYDYWGQGTQVTVSS”, the “polyreactivity (PSR sort gate)” value is reported as “high polyreactivity”.
For “QVQLVESGGGLVQAGGSLRLSCAASGSIFITYAMGWYRQAPGKERELVAAIRDSGDRTYYADSVKGRFTISRDNEKNTVYLQMNSLKPEDTAVYYCNARWQEPLKYDYWGQGTQVTVSS”, the “polyreactivity (PSR sort gate)” value was “low polyreactivity”.
In the case of “QVQLVESGGGLVQAGGSLRLSCAASGSIFIVNAMGWYRQAPGKERELVATITSDVDTNYADSVKGRFTISRDNAKNTVYLQMNSLKPEDTAVYYCAKESTKIYRVVEMDYWGQGTQVTVSS”, the “polyreactivity (PSR sort gate)” value is reported as “low polyreactivity”.
In the case of “QVQLVESGGGLVQAGGSLRLSCAASGSIFIVYAMGWYRQAPGKERELVATISWSGGSTSYADSVKGRFTISRDNAKNTVYLQMNSLKPEDTAVYYCNTLVRITEYDSWGQGTQVTVSS”, the “polyreactivity (PSR sort gate)” value is reported as “low polyreactivity”.
With “QVQLVESGGGLVQAGGSLRLSCAASGSIFIVYAMGWYRQAPGKERELVATISWSGGSTSYADSVKGRFTNSRDNAKNTVYLQMNSLKPEDTAFYYCNTLVRITEYDSWGQGTQVTVSS” the “polyreactivity (PSR sort gate)” value was “low polyreactivity”.
With “QVQLVESGGGLVQAGGSLRLSCAASGSIFIYNAMGWYRQAPGKERELVAAISSSGGSTYYADSVKGRFTISRDNAKNTVYLQMNSLKPEDTAVYYCAARTYYVRVLGGRPGMDYWGQGTQVTVSS” the “polyreactivity (PSR sort gate)” value was “low polyreactivity”.
With “QVQLVESGGGLVQAGGSLRLSCAASGSIFIYNAMGWYRQAPGKERELVAAISSSGGSTYYADSVKGRITISRDNAKNTVYLQMNSLKPEPTAVYYCAARTYYVRGLGGRPGMDYCGQGTQVTVSS” the “polyreactivity (PSR sort gate)” value was “low polyreactivity”.
In the case of “QVQLVESGGGLVQAGGSLRLSCAASGSIFIYNAMGWYRQGPGKERELVAAISSSGGSTYYADSVKGRFTISRDNAKNTVYLQMNSLNPEDTAVYYCAARTYYVRGLGGRPGMDYWGPGTQVTVSS”, the “polyreactivity (PSR sort gate)” value is reported as “low polyreactivity”.
With “QVQLVESGGGLVQAGGSLRLSCAASGSIFIYYAMGWYRQAPGKERELVASISSSGSRTYYADSVKGRFTISRDNAKNTVYLQMNSLKPEETAVYYCAARYAIPRNYPQYNYWGQGTQVTVSS” the “polyreactivity (PSR sort gate)” value was “high polyreactivity”.
With “QVQLVESGGGLVQAGGSLRLSCAASGSIFIYYAMGWYRQAPGKERELVATISSDDRTNYTDSVKGRFTISRDNAKNTVYLQMNSLKPEDTAVYYCAADRYWAGRDGPEYDYWGQGTQVTVSS” the “polyreactivity (PSR sort gate)” value was “low polyreactivity”.
With “QVQLVESGGGLVQAGGSLRLSCAASGSIFIYYAMGWYRQAPGKQRELVAGINFNGGSTYYADSVKGRFTISRDNAMYTVYVQMNSLKPEDTAVYYCAADELWWTYWDFVTNWYQRDYWGQGTQVTVSS” the “polyreactivity (PSR sort gate)” value was “low polyreactivity”.
For “QVQLVESGGGLVQAGGSLRLSCAASGSIFIYYTMGWYRQAPGKEREFVASISWRGGRTYYADSVKGRFTISRDNAKNTVYLQMNSLKPEDTAVYYCAAKSRAYSYRMDYWGQGTQVTVSS”, the “polyreactivity (PSR sort gate)” value was “high polyreactivity”.
For “QVQLVESGGGLVQAGGSLRLSCAASGSIFKGYALGWYRQAPGKERELVAAITYSGGGTYYADSVKGRFTISRDNAKNTVYLQMNSLKPEDTAVYYCNADRYYPDDLSDGVGTYDYWGQGTQVTVSS”, the “polyreactivity (PSR sort gate)” value was “low polyreactivity”.
With “QVQLVESGGGLVQAGGSLRLSCAASGSIFKGYAMGWYRQAPGKERELVAAITGGGGSTYYADSVKGRFTISRDNAKNTVYLQMNSLKPEDTAVYYCAADARVKRYYFRKSGYWGQGTQVTVSS” the “polyreactivity (PSR sort gate)” value was “high polyreactivity”.
With “QVQLVESGGGLVQAGGSLRLSCAASGSIFKINAMGCYTPAPGKERELVATITRSTGTTYYADSVKGRFTNSRDTAKNSVYLQMNSLKPEDTAVYYCATDGDSNKLDYWGQGTQVTVSS” the “polyreactivity (PSR sort gate)” value was “low polyreactivity”.
In the case of “QVQLVESGGGLVQAGGSLRLSCAASGSIFKIYAMGWSRQAPGKERELVAAISRSVGSTYADSVKGRFTISRDNAKNTVYLQMNSLKPEDTAVYYCNARYKSRLYPRYDYWGQGTQVTVSS”, the “polyreactivity (PSR sort gate)” value is reported as “high polyreactivity”.
For “QVQLVESGGGLVQAGGSLRLSCAASGSIFKIYAMGWYRQAPGKERELVAAISRRGSSTSYADSVKGRFTISRDNAKNTVYLQMNSLKPEDTAVYYCAARYISNPMDYWGQGTQVTVSS”, the “polyreactivity (PSR sort gate)” value was “high polyreactivity”.
In the case of “QVQLVESGGGLVQAGGSLRLSCAASGSIFKIYAMGWYRQAPGKERELVASITGSGGSTYYADSVKGRFTISRDNAKNTVYLQMNSLKPEDTAVYYCAADVVRSNFYGTFLYDYDYWGQGTQVTVSS”, the “polyreactivity (PSR sort gate)” value is reported as “low polyreactivity”.
With “QVQLVESGGGLVQAGGSLRLSCAASGSIFKIYAMGWYRQAPGKERELVASITGSGGSTYYADSVKGRFTISRDNAKNTVYLQMNSLKPEDTAVYYCIADGPLDRYEYWGQGTQVTVSS” the “polyreactivity (PSR sort gate)” value was “low polyreactivity”.
For “QVQLVESGGGLVQAGGSLRLSCAASGSIFKKYAMGWYRQAPGKERELVAAITRGTYYADSVKGRFTISRDNAKNTVYLQMNSVKPVDTAVYYCNREYWGRGYYRVRGEYVYWGQGTQVTVSS”, the “polyreactivity (PSR sort gate)” value was “low polyreactivity”.
In the case of “QVQLVESGGGLVQAGGSLRLSCAASGSIFKPYAMAWYRQAPGKERELVAAINRGGTSTYYADSVKGRFTISRDNAKNTVYLQMNSLKPEDTAVYYCAKTYTEYSVTRSGARMDYWGQGAQVTVSS”, the “polyreactivity (PSR sort gate)” value is reported as “low polyreactivity”.
In the case of “QVQLVESGGGLVQAGGSLRLSCAASGSIFKPYAMGWYRQAPGKERELVAAINRGGTSTYYADSVKGRFTISRDNAKNTVYFQMNSLKPEDTAVYYCAAPNRYSVPMYYWGQGTQVTVSS”, the “polyreactivity (PSR sort gate)” value is reported as “low polyreactivity”.
With “QVQLVESGGGLVQAGGSLRLSCAASGSIFKPYAMGWYRQAPGKERELVAAISYSGGSTYYADSVKGRFTISRDNAKNSVYLQMNSLKPEDTAVYYCAKRSTSRGYDYWGQGTQVTVSS” the “polyreactivity (PSR sort gate)” value was “high polyreactivity”.
In the case of “QVQLVESGGGLVQAGGSLRLSCAASGSIFKQNDMGWYRHAPGKERELVAAITYTGGSTYYADSVKGRFTISRDNAKNTVYLQMNSLKPEDTAVYYCAARITSPRARSRGFYYWGQGTQVTVSS”, the “polyreactivity (PSR sort gate)” value is reported as “high polyreactivity”.
With “QVQLVESGGGLVQAGGSLRLSCAASGSIFKQYDMGWYRQAPGKERDLVAAITASDGSTYYADSVKGRFTISRDNAMNTVYLQMNSLKPEDTAVYFCAADGGVAWGYGYCGQGTQVTVSS” the “polyreactivity (PSR sort gate)” value was “low polyreactivity”.
In the case of “QVQLVESGGGLVQAGGSLRLSCAASGSIFKQYVMGWYRQAPGKERELVAAISRGGNTYYADSVKGRFTISRDNAKNTVYLQMNSLKPEDTAVYYCAAVYGGRAVPYYSWGQGTQVTVSS”, the “polyreactivity (PSR sort gate)” value is reported as “high polyreactivity”.
In the case of “QVQLVESGGGLVQAGGSLRLSCAASGSIFKRNAMGWYRQAPGKERELVASISWSGTRTYYADSVKGRFTISRDKAKNTVYFQMNSLKPEDTAVYYCARRIYGGHPCQSTQGDFYYWGQGTQVTVSS”, the “polyreactivity (PSR sort gate)” value is reported as “high polyreactivity”.
With “QVQLVESGGGLVQAGGSLRLSCAASGSIFKRYAMGWYRQAPGKERELVAAISWSGGNTYYADSVKGRFTISRDNAKNTVYLQMNSLKPEDTAVYYCAALHRVGYSEYGYWGQGTQVTVSS” the “polyreactivity (PSR sort gate)” value was “high polyreactivity”.
With “QVQLVESGGGLVQAGGSLRLSCAASGSIFKRYAMGWYRQAPGKERELVAGITSSGGSTYYADSVKGRFTISPDNAKNTVYLQMNSLKPEDTAVYYCAAPYSSYKVRPYDYWGQGTQVTVSS” the “polyreactivity (PSR sort gate)” value was “low polyreactivity”.
